From patent US20250101111A1

Key:
human FcγRIIb (human) [1] = target: human FcγRIIb (human) (UniProt P31994); assay: SPR (IBIS MX96), FcγR captured on sensor, full-length IgG1 titrated, pH 7.4, equilibrium 1:1 fit
[2] = target: human FcγRIIIb-NA2 (human) (UniProt O75015); assay: as above
[3] = target: human FcγRIIIa-158V (human) (UniProt P08637); assay: as above
[4] = target: human FcγRIIa-131H (human) (UniProt P12318); assay: as above
[5] = target: human FcγRIIa-131R (human) (UniProt P12318); assay: as above
Chain of human FcγRIIa-131R (human) (P12318 34-218 H167R limits assumed): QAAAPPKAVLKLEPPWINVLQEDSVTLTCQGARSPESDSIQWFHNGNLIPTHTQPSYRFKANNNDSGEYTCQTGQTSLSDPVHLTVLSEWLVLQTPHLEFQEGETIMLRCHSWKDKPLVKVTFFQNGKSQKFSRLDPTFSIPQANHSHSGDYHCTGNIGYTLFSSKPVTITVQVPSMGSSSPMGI

human FcγRIa (human) [6] = target: human FcγRIa (human) (UniProt P12314); assay: as above
Chain of human FcγRIa (human) (P12314 16-288 limits assumed): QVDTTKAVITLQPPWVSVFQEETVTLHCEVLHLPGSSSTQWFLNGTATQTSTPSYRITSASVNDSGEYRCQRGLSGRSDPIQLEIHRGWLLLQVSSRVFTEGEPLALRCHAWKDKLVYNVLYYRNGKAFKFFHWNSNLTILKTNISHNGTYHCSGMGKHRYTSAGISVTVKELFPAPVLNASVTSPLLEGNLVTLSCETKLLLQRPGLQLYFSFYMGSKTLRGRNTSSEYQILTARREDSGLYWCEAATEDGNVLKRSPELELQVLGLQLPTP

[7] = target: human FcγRIIIb-NA1 (human) (UniProt O75015); assay: as above
Chain of human FcγRIIIb-NA1 (human) (O75015 other isoform, or with tags, fused parts or gaps limits assumed): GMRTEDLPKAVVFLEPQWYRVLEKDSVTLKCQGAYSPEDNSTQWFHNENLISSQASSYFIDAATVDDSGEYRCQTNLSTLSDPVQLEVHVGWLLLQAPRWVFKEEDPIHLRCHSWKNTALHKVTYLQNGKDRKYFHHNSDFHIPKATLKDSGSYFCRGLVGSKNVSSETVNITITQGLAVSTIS

[8] = target: human FcγRIIIa-158F (human) (UniProt P08637); assay: as above
Chain of human FcγRIIIa-158F (human) (P08637 17-208 limits assumed): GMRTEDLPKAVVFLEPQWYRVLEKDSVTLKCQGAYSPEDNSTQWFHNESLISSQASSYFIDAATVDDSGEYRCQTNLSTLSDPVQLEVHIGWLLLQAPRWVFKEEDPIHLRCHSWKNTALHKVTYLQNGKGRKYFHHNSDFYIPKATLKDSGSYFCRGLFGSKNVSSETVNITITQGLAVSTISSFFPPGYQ

human FcγRIIb (human) [9] = target: human FcγRIIb (human) (UniProt P31994); assay: SPR (IBIS MX96), FcγR captured on sensor, full-length IgG1 titrated, pH 6.0, equilibrium 1:1 fit
[10] = target: human FcγRIIIb-NA2 (human) (UniProt O75015); assay: as above
[11] = target: human FcγRIIIa-158V (human) (UniProt P08637); assay: as above
[12] = target: human FcγRIIa-131H (human) (UniProt P12318); assay: as above
[13] = target: human FcγRIIa-131R (human) (UniProt P12318); assay: as above
human FcγRIa (human) [14] = target: human FcγRIa (human) (UniProt P12314); assay: as above
[15] = target: human FcγRIIIb-NA1 (human) (UniProt O75015); assay: as above
[16] = target: human FcγRIIIa-158F (human) (UniProt P08637); assay: as above

Chain of human FcγRIIIa-158V (human) (P08637 17-208 F176V limits assumed): as the sequence (P08637 17-208 limits assumed) above, with F160V counted along it
Chain of human FcγRIIb (human) (P31994 43-217 limits assumed): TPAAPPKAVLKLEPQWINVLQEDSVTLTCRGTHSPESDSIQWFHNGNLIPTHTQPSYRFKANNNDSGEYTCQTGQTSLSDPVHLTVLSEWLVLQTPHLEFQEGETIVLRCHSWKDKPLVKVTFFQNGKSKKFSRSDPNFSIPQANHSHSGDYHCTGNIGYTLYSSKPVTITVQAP
Chain of human FcγRIIIb-NA2 (human) (O75015 17-200 N65S limits assumed): as the sequence (O75015 other isoform, or with tags, fused parts or gaps limits assumed) above, with R20S, N49S, D66N, V90I counted along it
Chain of human FcγRIIa-131H (human) (P12318 34-218 limits assumed): as the sequence (P12318 34-218 H167R limits assumed) above, with R134H counted along it

Row | Substance | Kd (human FcγRIIb (human) [1]) | Kd [2] | Kd [3] | Kd [4] | Kd [5] | Kd (human FcγRIa (human) [6]) | Kd [7] | Kd [8] | Kd (human FcγRIIb (human) [9]) | Kd [10] | Kd [11] | Kd [12] | Kd [13] | Kd (human FcγRIa (human) [14]) | Kd [15] | Kd [16]
1 | IgG1-WT-afuc (antibody) | > 2000 nM | 552 nM | 16.6 nM | 1000 nM | 1010 nM | 32.9 nM | 617 nM | 80.7 nM | > 2000 nM | 625 nM | 17.8 nM | 1020 nM | 1990 nM | 33.3 nM | > 2000 nM | 102 nM
2 | IgG1-ΔG236 (antibody) | – | – | – | – | – | > 2000 nM | – | – | – | – | – | – | – | > 2000 nM | – | –
3 | IgG1-WT (antibody) | > 2000 nM | > 2000 nM | 382 nM | 668 nM | 953 nM | 7.1 nM | > 2000 nM | > 2000 nM | > 2000 nM | > 2000 nM | 337 nM | 455 nM | 920 nM | 27 nM | > 2000 nM | 894 nM
4 | IgG1-G236A (antibody) | > 2000 nM | – | – | 126 nM | 241 nM | 13.2 nM | > 2000 nM | – | > 2000 nM | – | 491 nM | 141 nM | 358 nM | 63.3 nM | > 2000 nM | –
